Measured values from US20190218553, “VON WILLEBRAND FACTOR (VWF)-TARGETING AGENTS AND METHODS OF USING THE SAME” (DUKE UNIVERSITY, published 2019).

What was measured:
[1] = molecular target: T1, von Willebrand factor (VWF) (Homo sapiens, UniProt P04275 P04275:764-2813); experiment: filter; Bmax 56%; 2 mM CaCl2, 37 C; settings: tags: factor VIII free, Haematologic Technologies Inc; label: 5'-32P
Procedure: (§1) Affinity constants (Kd values) were determined using double-filter nitrocellulose filter binding assays (Rusconi et al, Thromb. Haemost. $4:841-848 (2000)). All binding studies were performed in binding buffer F (20 mM HEPES, pH 7.4, 150 mM NaCl, 2 mM CaCl₂, and 0.01% BSA) at 37° C. Human purified VWF (factor VIII free) was purchased from Haematologic Technologies Inc. (Essex Junction, Vt.) and used in the double-filter nitrocellulose filter binding assay to determine the Kd of the aptamers. Briefly, RNA were end-labeled at the 5′ end with T4 polynucleotide kinase (New England Biolabs, Beverly, Mass.) and [γ³²P] ATP (Amersham Pharmacia Biotech, Piscataway, N.J.) (Fitzwater and Polisky, Methods Enzymol. 267:275-301 (1996)). End-labeled RNA was diluted in binding buffer F, heat denatured at 65° C. for 5 minutes, and subsequently equilibrated at 37° C. Direct binding was performed by incubating trace ³²P-RNA with varying concentrations of VWF protein in binding buffer F at 37° C. for 5 min. The fraction of the nucleic acid-protein complex which bound to the nitrocellulose membrane was quantified with a phosphorimager (Molecular Dynamics, Sunnyvale, Calif.). Non-specific binding of the radiolabeled nucleic acid was subtracted out of the binding such that only specific binding remained (Wong and Lohman, Proc. Natl. Acad. Sci. USA 90:5428-5432 (1993)).

[2] = molecular target: T1, von Willebrand factor (VWF); experiment: filter; Bmax 66%; 2 mM CaCl2, 37 C; settings: tags: factor VIII free, Haematologic Technologies Inc; label: 5'-32P
Procedure: as §1

[3] = molecular target: T1, von Willebrand factor (VWF); experiment: filter; Bmax 87%; 2 mM CaCl2, 37 C; settings: Haematologic Technologies Inc, label: 5'-32P
Procedure: as §1

[4] = molecular target: T1, von Willebrand factor (VWF); experiment: filter; Bmax 73%; 2 mM CaCl2, 37 C; settings: Haematologic Technologies Inc, label: 5'-32P
Procedure: as §1

[5] = molecular target: T1, von Willebrand factor (VWF); experiment: filter; Bmax 67%; 2 mM CaCl2, 37 C; settings: Haematologic Technologies Inc, label: 5'-32P
Procedure: as §1

[6] = molecular target: T1, von Willebrand factor (VWF); experiment: filter; Bmax 71%; 2 mM CaCl2, 37 C; settings: tags: factor VIII free human purified VWF, Haematologic Technologies Inc; label: 5'-32P
Procedure: as §1

[7] = molecular target: T1, von Willebrand factor (VWF); experiment: filter; Bmax 83%; 2 mM CaCl2, 37 C; settings: tags: factor VIII free human purified VWF, Haematologic Technologies Inc; label: 5'-32P
Procedure: as §1

[8] = molecular target: T1, von Willebrand factor (VWF); experiment: filter; Bmax 13%; 2 mM CaCl2, 37 C; settings: tags: factor VIII free, Haematologic Technologies Inc; label: 5'-32P
Procedure: as §1

[9] = molecular target: T1, von Willebrand factor (VWF); experiment: filter; Bmax 55%; 2 mM CaCl2, 37 C; settings: tags: factor VIII free, Haematologic Technologies Inc; label: 5'-32P
Procedure: as §1

[10] = molecular target: T1, von Willebrand factor (VWF); experiment: filter; Bmax 49%; 2 mM CaCl2, 37 C; settings: tags: factor VIII free human purified VWF, Haematologic Technologies Inc; label: 5'-32P
Procedure: as §1

[11] = molecular target: T1, von Willebrand factor (VWF); experiment: filter; Bmax 58%; 2 mM CaCl2, 37 C; settings: tags: factor VIII free, Haematologic Technologies Inc; label: 5'-32P
Procedure: as §1

[12] = molecular target: T1, von Willebrand factor (VWF); experiment: filter; Bmax 54%; 2 mM CaCl2, 37 C; settings: tags: factor VIII free, Haematologic Technologies Inc; label: 5'-32P
Procedure: as §1

[13] = molecular target: T1, von Willebrand factor (VWF); experiment: filter; Bmax 57%; 2 mM CaCl2, 37 C; settings: tags: factor VIII free, Haematologic Technologies Inc; label: 5'-32P
Procedure: as §1

[14] = tags: factor VIII free human purified VWF

ACGAACUGCCCUCAGACUUAUGUCUGACGCACAGACGU (ssRNA, 2'-F C and U; 2'-OH A and G; 3' idT) [T51]
Kd [1]: 17 nM

ACGAACUGCCCUCAGUACUUUCAUGUUCUGACGCACAGACGU (ssRNA, 2'-F C and U; 2'-OH A and G; 3' idT) [T35]
Kd [2]: 12 nM

ACGAACUGCCCUCAGCACUUUCAUGUGCUGACGCACAGACGU (ssRNA, 2'-F C and U; 2'-OH A and G; 3' idT) [T33]
Kd [2]: 15 nM

ACGAACUGCCCUCGAUCGACGCACAGACGU (ssRNA, rAfCrGmAmAmCfUrGfCfCfCmUmCmGmAmUmCmGmAfCrGfCrAmCmAmGmAfCrGfU-idT) [T59 vrt2]
Kd ([3]; tags: factor VIII free): 5.5 nM

B1: T83 vrt1 (ssRNA)
RNA: ACGAACUGCCCUCGAUCGACGCACAGACGUAAAAA
modifications: 2'-F C2,U7,C9,C10,C11,U12,C20,C22,C28,U30; ribo A1,G3,G8,A19,G21,A23,G29; rest 2'-OMe; 3' idT
Kd [4, 14]: 2.1 nM

ACGAACUGCCCUCGAUCGACGCACAGACGUACCCG (ssRNA, 2'-F C9,C10,C11,C20,G21,C22,U30; rest 2'-OMe; 3' idT) [T82 vrt6]
Kd [5, 14]: 223 nM

ACGAACUGCCCUCGAUCGACGCACAGACGUACACG (ssRNA, 2'-F C9,C10,C11,C20,G21,C22,U30; rest 2'-OMe; 3' idT) [T84 vrt6]
Kd [6]: 149 nM

ACGAACUGCCCUCGAUCGACGCACAGACGUACCCG (ssRNA, 2'-F C9,C10,C11,C20,C22; ribo G21; rest 2'-OMe; 3' idT) [T82 vrt4]
Kd [3, 14]: 38.5 nM

ACGAACUGCCCUCGAUCGACGCACAGACGUAAAAA (ssRNA, 2'-F C9,C10,C11,C20,G21,C22,U30; rest 2'-OMe; 3' idT) [T83 vrt6]
Kd [5, 14]: 209 nM

ACGAACUGCCCUCGAUCGACGCACAGACGUAAAAA (ssRNA, 2'-F C9,C10,C11,C20,G21,C22; rest 2'-OMe; 3' idT) [T83 vrt7]
Kd [7]: 265 nM

B2: T16 (ssRNA)
RNA: GGGAGGUGGACGAACUGCCCUCAGCUACGUUGCUGACGCACAGACGACUCGCUG
modifications: 2'-F C and U; 2'-OH A and G
Kd [8]: 126 nM

CCCAAAACGAACUGCCCUCGAUCGACGCACAGACGU (ssRNA, 2'-F C and U; 2'-OH A and G; 3' idT) [T78]
Kd [9]: 6.6 nM

ACGAACUGCCCUCGUAUUAUUUCGACGCACAGACGU (ssRNA, 2'-F C9,C10,C11,C26,C28,U36; rest 2'-OMe; 3' idT) [T89 vrt3]
Kd [10]: 63 nM

ACGAACUGCCCUCGUAUUAUUUCGACGCACAGACGU (ssRNA, 2'-F C9,C10,C11,C26,G27,C28,U36; rest 2'-OMe; 3' idT) [T89 vrt6]
Kd [4, 14]: 34.5 nM

CCGAACUGCCCUCGAUCGACGCACAGACGG (ssRNA, mCmCmGmAmAmCmUmGfCfCfCmUmCmGmAmUmCmGmAfCrGfCmAmCmAmGmAmCmGmGidT) [DTRI-013]
Kd [11]: 5.4 nM

B3: T25 vrt5 (ssRNA)
RNA: ACGAACUGCCCUCAGCUACUUUCAUGUUGCUGACGCACAGACGU
modifications: rAfCrGmAmAfCfUrGfCfCfCfUfCrArGfCfUrAfCfUfUfUfCrAfUrGfUfUrGfCfUrGrAfCrGfCrAfCmAmGmAfCrGfU-idT
Kd [11]: 7.1 nM

B4: T25 vrt14 (ssRNA)
RNA: B3 RNA
modifications: mAfCrGrArAfCfUrGfCfCfCfUfCrArGfCfUrAfCfUfUfUfCrAfUrGfUfUrGfCfUrGrAfCrGfCrAfCrArGrAfCrGmU-idT
Kd [12]: 9.2 nM

B5: T25 vrt9 (ssRNA)
RNA: B3 RNA
modifications: rAfCrGrArAfCfUrGfCfCfCfUfCmAmGfCfUmAfCfUfUfUfCrAfUrGfUfUmGfCfUmGrAfCrGfCrAfCrArGrAfCrGfU-idT
Kd [13]: 9.8 nM

B6: T25 vrt6 (ssRNA)
RNA: B3 RNA
modifications: rAfCrGmAmAmCfUrGfCfCfCfUfCrArGfCfUrAfCfUfUfUfCrAfUrGfUfUrGfCfUrGrAfCrGfCrAmCmAmGmAfCrGfU-idT
Kd ([5]; tags: factor VIII free): 3.1 nM

B7: T25 vrt11 (ssRNA)
RNA: B3 RNA
modifications: rAfCrGrArAfCfUrGfCfCfCfUfCrArGfCfUrAfCfUfUfUfCmAfUmGfUfUrGfCfUrGrAfCrGfCrAfCrArGrAfCrGfU-idT
Kd [13]: 7.2 nM

B8: T25 vrt15 (ssRNA)
RNA: B3 RNA
modifications: rAmCrGrArAfCfUrGfCfCfCfUfCrArGfCfUrAfCfUfUfUfCrAfUrGfUfUrGfCfUrGrAfCrGfCrAfCrArGrAfCmGfU-idT
Kd ([4]; tags: factor VIII free): 7.3 nM
